System: T1, thrombin cleavable peptide GGLVPRGSGGC
T1 sequence: GGLVPRGSGGC

Substance: thrombin
- cleavage of the peptide by thrombin, LCMS analysis: the peptides were efficiently cleaved after 12 h incubation with 1 U mL^-1 thrombin in Tris buffer

Reference: patent US20180214476
